experiment: yeast display, Sf9 membrane polyspecificity reagent, FACS + sequencing; frameworks hold sequencing errors
How it was run: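 Synthetic nanobody libraries on Saccharomyces cerevisiae BJ5465 were galactose-induced for 36–48 hours, stained 1 hour at 4 °C with 10% biotinylated, detergent-solubilized Sf9 membrane reagent and enriched on streptavidin microbeads. FACS then separated cells into low and high (top ~1%) gates by anti-HA (expression) and streptavidin (reagent binding) fluorescence. Genes were colony-PCR amplified, MiSeq 2 × 250 sequenced and CDR-length filtered. A clone's polyreactivity label is that of its gate of origin.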

Question: For “QVQLVESGGGLVQAGGSLRLSCAASGFIFPAYAMGWYRQAPGKERELVAGITSRGGSTYYADSVKGRFTISRDNAKNTVYLQMNSLKPEDTAVYYCAKPYHWPWTRFDYWGQGTQVTVSS”, which “polyreactivity (PSR sort gate)” value is on record?
Answer: Its value is “low polyreactivity”.

Question: Which “polyreactivity (PSR sort gate)” value does the source give for “QVQLVESGGGLVQAGGSLRLSCAASGFIFPDYAMGWSRQAPGKERELVAAISKRGGSTYYADSVKGRFTISRDNAKNTVYLQMNSLKPEDTAVYYCAAVTSVNPSVFNGNYWGQGTHVTVSS” here?
Answer: The value was “low polyreactivity”.

Question: For “QVQLVESGGGLVQAGGSLRLSCAASGFIFPLYTMGWYRQAPGKERELVAAITCSGGSTYYADSVKGGFTISRDNAKNTVYLQMNSLKPEDTAVYYCAKDYTYGMDWGQGTQVTVSS”, which “polyreactivity (PSR sort gate)” value is on record?
Answer: The value was “low polyreactivity”.

Question: Which “polyreactivity (PSR sort gate)” value does the source give for “QVQLVESGGGLVQAGGSLRLSCAASGFIFPNYAMGWYRQAPGKEREFVASISWSGGSTYYADSVKGRFTISRDNAKNTVYLQMNSLKPEDTEVYYCNAVAFFNHGAGEDYWGQGTQVTVSS” here?
Answer: Its value is “high polyreactivity”.

Question: With “QVQLVESGGGLVQAGGSLRLSCAASGFIFPQYAMGWYRQAPGKERELVAAISTGGGSTYYADSVKGRFTISRDNAKNTVYLQMNSLKPEDTAVYYCAKYVYRFARYNLDYWGQGTQVTVSS” as the sequence, how does the “polyreactivity (PSR sort gate)” value read?
Answer: Its value is “high polyreactivity”.

Question: For “QVQLVESGGGLVQAGGSLRLSCAASGFIFPRNAMGWYRPAPGKERELVAAISRSGGRTYYADSVKGRFTISRDNAKNTVYLQMNSLKPEDTAVYYCNADLALRSRYGEYDYWGQGTQVTVSS”, which “polyreactivity (PSR sort gate)” value is on record?
Answer: Its value is “high polyreactivity”.

Question: Which “polyreactivity (PSR sort gate)” value does the source give for “QVQLVESGGGLVQAGGSLRLSCAASGFIFPRNAMGWYRQAPGKERELVAGITRGGSTNYADSVKGRFTISRDNAKNTVYLQMNSLKPEDTAVYYCAAKSYNYNRPYGWREYDYWGQGTQVTVSS” here?
Answer: Its value is “high polyreactivity”.

Question: Which “polyreactivity (PSR sort gate)” value does the source give for “QVQLVESGGGLVQAGGSLRLSCAASGFIFPRNVMGWYRQAPGKERELVAAISRSGGSTYYADSVKGRFTISRDNAKNTVYLQMNSLTPEDTAVYYCAKRPAYYYFVYQVPIGYDYWGQGTQVTVSS” here?
Answer: The value was “high polyreactivity”.

Question: With “QVQLVESGGGLVQAGGSLRLSCAASGFIFPRYAMGWYRQAPGKERELVADISYSGGSTYYADSVKGRFTISRDNAKNTVYLQMNSLKPEDTAVYRPYAFGYWGQGTQVTVSS” as the sequence, how does the “polyreactivity (PSR sort gate)” value read?
Answer: Its value is “high polyreactivity”.

Question: With “QVQLVESGGGLVQAGGSLRLSCAASGFIFPSYAMGWYRQAPGKERELVAAITSSGGSTYYADSVKGRFTISRDNAKNTVYLQMNSLKPEDTAVYYCNARYPGRARRYNYWGQGTQVTVSS” as the sequence, how does the “polyreactivity (PSR sort gate)” value read?
Answer: The value was “high polyreactivity”.

Question: With “QVQLVESGGGLVQAGGSLRLSCAASGFIFPTNVMGWYRQAPGKEREFVASITWRGGGTYYADSVKGRFTISRDNAKNTVYLPMNSLKPEDTAVYYCAAGRSWSSYWKYDYWGQGTQVTVSS” as the sequence, how does the “polyreactivity (PSR sort gate)” value read?
Answer: The value was “low polyreactivity”.

Question: For “QVQLVESGGGLVQAGGSLRLSCAASGFIFPTYAMGWYRQAPGKERELVATITSAVRTKYADSVKGRFTISRDNAKNTVYLQMNSLKPEDTAVYYSAAAYTVARFYRYYYWGQGTQVTVSS”, which “polyreactivity (PSR sort gate)” value is on record?
Answer: Its value is “high polyreactivity”.

Question: For “QVQLVESGGGLVQAGGSLRLSCAASGFIFPVYAMGWYTQGGGKERELVADISSDGSTNYADSVKGRFTISRDNAKNTVYLQMNSLKPEDTAVYYCAREDNLRHQSDSRYDYWGQGTQVTVSS”, which “polyreactivity (PSR sort gate)” value is on record?
Answer: The value was “low polyreactivity”.

Question: Which “polyreactivity (PSR sort gate)” value does the source give for “QVQLVESGGGLVQAGGSLRLSCAASGFIFPWYAMGGYRQAPRKERELVAAITSGGTTYYADSVKGRFTISRDNAKNTVYLQMNSLKPEDTAVYYCAAQYYFYPHEFDYWGQGTQVTVSS” here?
Answer: The value was “low polyreactivity”.

Question: Which “polyreactivity (PSR sort gate)” value does the source give for “QVQLVESGGGLVQAGGSLRLSCAASGFIFPYYAMGWYRQAPGKERELVAAITRSGGRTYYADSVKGRFTISRDNAKNTVYLQMNSLKPEDTAVYYCAVRYIRYRNLKYDFWGQGTHVTVSS” here?
Answer: Its value is “high polyreactivity”.

Question: For “QVQLVESGGGLVQAGGSLRLSCAASGFIFQAYALGWYRQAPGKERELVASISYSGSRTYYADSVKGRFTISRDNAKNTVYLQMNSLKPEDTAGYYCAARYGRYYKYNYWGQGTQVTVSS”, which “polyreactivity (PSR sort gate)” value is on record?
Answer: The value was “high polyreactivity”.

Question: Which “polyreactivity (PSR sort gate)” value does the source give for “QVQLVESGGGLVQAGGSLRLSCAASGFIFQAYAMGWYRQAPGKERELVAAISSSGGSTYYADSVTGRFTISRDNAKNTVYLQMNSLKPEDTAVYYCAALRYVKMLAQAYEYWGQGTQVTVSS” here?
Answer: The value was “high polyreactivity”.

Question: With “QVQLVESGGGLVQAGGSLRLSCAASGFIFQDYALGWYRKAPGKERELVAAITQSSGSTYYADSVKGRFTISRDNAKNTVYLQMNSLKPEDTAVYYCNTAYDFSRQASYDYWGQGTQVTVSS” as the sequence, how does the “polyreactivity (PSR sort gate)” value read?
Answer: Its value is “low polyreactivity”.

Question: Which “polyreactivity (PSR sort gate)” value does the source give for “QVQLVESGGGLVQAGGSLRLSCAASGFIFQEYAMGWYRQAPGKERELVAAITSGGSTNYADSVKGRFTISRDNAKNTVYLQMNSLKPADTAVYYCNVDSPDYYYDYDYWGQGTQVTVSS” here?
Answer: The value was “low polyreactivity”.

Question: For “QVQLVESGGGLVQAGGSLRLSCAASGFIFQPYAMGWYRQAPGKERELVAAITSRGGRTYYADSVKGRITISRDNAKNTVYLQMNSLKPEDTAVYYCNADIYASEYYYWGQGTQVTVSS”, which “polyreactivity (PSR sort gate)” value is on record?
Answer: The value was “low polyreactivity”.

Question: With “QVQLVESGGGLVQAGGSLRLSCAASGFIFQSYAMGWYRQAPGKERELVAAITRSGGRTYYADSVKGRFTISRDNAKNTVYLQMNSLKPEDTAVYYCAAETSYPGIYRFYYWGQGTQVTVSS” as the sequence, how does the “polyreactivity (PSR sort gate)” value read?
Answer: Its value is “high polyreactivity”.

Question: For “QVQLVESGGGLVQAGGSLRLSCAASGFIFQVYAMGWYRQAPGKERELVAAISDDGSTNYADSVKGRFTISRDNAKYTVYLQMNSLKPEDTAVYYCAKESWGRLYYRYDYWGQGTQVTVSS”, which “polyreactivity (PSR sort gate)” value is on record?
Answer: Its value is “low polyreactivity”.

Reference: the nanobody polyreactivity screen of Harvey et al. (2022)
